# Data taken from the DeepSol protein solubility set.
# Assay: soluble on expression in E. coli; label from the status in PepcDB or PDB records
row,Sequence,soluble on expression in E. coli
1,MKKELLTRFMEKRIVELKKEQRNGTAHVYQSTLNRLKNFMNGREITFSQLTPEWLALFEQKLLADQLKWNTISTYMRMLRSVYNQALERGVATYVPRLFNKVHTGIDCPVKRAVSPEVICRLMTDRKPLPGKLAFSRDLFVLLFLLRGMPFVDLAFLRRCDLQGNVITYHRRKTSRKLTVVVGKEAMEIIQKYMYAIPDSPYLFPIIQNPGKDEYGQYARMLRLQNYRLTQVANILGIRDRLSTYTARHTWATTALRQNYNSSLICDAMGHSSVKVTETYFQPYRDDEVNRMNSSLITYILSKKKRGTDKKIRS,not soluble
2,MKKHTLALCLAAILAPAAHAAEIKVEDLTWKAITFGQSTDMNFGSTILPEKVGVNQVTVNGEAVAAGKLASTFTIESRGGKLANSHEGLTFYYTELPTDVNFTLSADVVLEQLGPETGATPNRQEGAGLMVRDILGAERLVPQPEGHEEFPSASNMVMNLMRSHTRANDGMTNINASFREGVYQPWGTPGNRLSRVDYVEGVPYGTAETYRMTLTRTNDGFKVSYRNGEKFVEQAVKGANANIVEMQNSDSQYVGFFASRNAKMTVSNVDLQLAAADTVDAPKYAAKQGELVFQIASSPRSATKEYPVQARANYSGEFEVLHNDKVVAKQTVTAGELFSQWLTLDSGANQMEVRFTAIDGPNKETQAHRYSVDVVSLPDPMTL,not soluble
3,MKKIDRVIESIQSRITEGRLKPGQKLPSIRQAVDEFGVSKNTVIEAYERLSARGLIRSVHGAGFFVCASTPAPLSKATQPAHIVEAVDRLTLLTAQLDQEKLPVRVGDGRPPQSWMNDALPLRMKGNIFKNFVGDPSGYGGVSGHLQLRELIAARSNRADMSVHPDQIVTTFGANHALDLIIRRYLEPGDVVLVDDPGYYPLLGKFKLAKIRAIGVPRTPTGPDLDVMETLAAAHGPKMFFTQSTCQNPTGSSMSLPVAHGVLQVAQRFGLMVIDNDPFTDLPGNAGVPLSALDAFNSVIAISSFSKLLSASFRVGYVIARPEVARELTELKLLTVVNSSRFSEMVIAELIKSQRYGRHLNKLVNRLEEARRDYHRKVRKLGLDVFCAQETGYYSFLQLPHTVDEGQLVRKASAAGIMLAPGRLFAVDENPARPALRINVTRADDPRFYRFLKRQVIDGQV,not soluble
4,MKKIIAILLLVIGSIGIGKDLDQYESKRVFDKIIEVALTGDYEKYKNDKEMTNALEELVKASEYLDVHRIFSDGNKYIVLDVEEQGNRSILTVKAVYKIYRDISEEKYRQIMEREVLELMKYDMEEIDEKTYKKNVYNIITDIAGNDFEIKEEVIKMNMIKKEKWDMEDNSDLIQRLYPAIFYMMESLNKRYFKTSEEGNI,not soluble
5,MKKILLSLLALGCFSAANAQTFRFGPTVGGNLNISDETKTKIGFAVGAKAEMNFNNPENGWFMDASVLFNNRNRQSENYFNNETKLTQCWKYSTYSLLVPVNVGYKFRLSDNLNLLAAVGPYADFGLTGTDKVTTTDAKGHSKEEKMSSNVYGDKLFNRVNFGFDAKVGVEIAKHYQLSLSYSRGFTNIFKGGLNTKAQDLQLGFSYMF,not soluble
6,MKKILSILLALLLSISSLGVTTSHAEEKIHIEAAAALLFDADTGKILHEQNPDELLAIASMSKLIVVYAVLEAIKEGKITWDTKVNISDYAYEVSRNNEFSNVPFEKGRQYTVRELYHSIVIFSANGSSIALAELLAGSEKNFLNLANEHAKKLGLKKYKFVNATGLNNTDLKGKHPEGTDPNAENSMSARDMGILSKAMITKYPEMLEDTKQRFRNFPDNHPKPIRMENWNWMLPGAAFAYEGTDGLKTGSSDTAGYGFTITAKRGDVRLISVIIKTKSMDERFTESRELIEYGFNNFEKQKLKVDKNNTLSVAQGKEDQVTVAPEKEITVIAKKGSKNPYKIGTEVDKSLAEDGHLVAPIKKDAKVGSITLESTDKYGFLDGSNSMKVTAKTTEEVEKANWFVLTMRSIGDFFSNLWSKVF,not soluble
7,MKKKIAEYEVGEQVDIFLLIKTATKGIASNGKPFLTVILQDPSGDIEAKLWDVSPEVEKQYVAETIVKVAGDILNYKGRIQLRVKQIRVANENEVTDISDFVEKAPVKKEDMVEKITQYIFEMRNPNIQRLTRHLLNKHQNEFLDYPAATKNHHEFVSGLAYHVVSMLDLAKAISNLYPSLDKDLLYAGVILHDLGKVIELSGPISTTYTLEGNLLGHISIMVNEIGKAADELQIDAEEVLILQHIVLSHHGKAEWGSPKPPLVKEAEILHYIDNLDAKMNMMDRALGRTKPGEYTERVFALDNRSFYKPSFHN,not soluble
8,MKKKNVVVFGGGTGLSVLLRGLKTFPVSITAIVTVADDGGSSGRLRKELDIPPPGDVRNVLVALSEVEPLLEQLFQHRFENGNGLSGHSLGNLLLAGMTSITGDFARGISEMSKVLNVRGKVLPASNRSIILHGEMEDGTIVTGESSIPKAGKKIKRVFLTPKDTKPLREGLEAIRKADVIVIGPGSLYTSVLPNLLVPGICEAIKQSTARKVYICNVMTQNGETDGYTASDHLQAIMDHCGVGIVDDILVHGEPISDTVKAKYAKEKAEPVIVDEHKLKALGVGTISDYFVLEQDDVLRHNASKVSEAILEGKPRTSSSIQAAALEHHHHHH,soluble
9,MKKLATLTALAGALTMAVATAAQAESKSSSTDNTATPCVGDKCVKTKAAEGKCGEGKCGADKAKSAEGKCGEGKCGADKAKSAEGKCGEGKCGSK,not soluble
10,MKKLLLTLVSSSLLVACSQRTESMEDKSIAPCGDKPNCISTLDEREEFTVKPFILTSSANMKAISHIASQLKGAKLVDINNDYARIECTSSVFRFVDDLELRIYGNTLIVRSESRTGYSDFGVNRKRVEKLRTLLEEKGLISQLEHHHHHH,not soluble
11,MKKLLSIVLGLALSAPVLANEVSFEQYVERLKQQAREEGISERILNEAFRDVEYKPRSVVADKNQPEKKLTLDEYIPRAVPEWKVKQAQSLYEKHYTELQRIGKQYGVQPRFIVALWGVESNFGAFTGNFRVIDALSTLAYEGRREEFFRKETMAALQILEQGHIAPEAMKGSWAGAMGQCQFMPSSFLNFAADGNGDGKKDIWGTRSDVFASTANYLSQSGWDDKYTWGRQVKIPKGFDHALEGRQPEKGKTLQEWSKLGVTRYDGKPLPALSDDIKAWLIMPDDEAGRIYLVYNNYNVLMKWNRSHYFALAVSHLADRIAF,not soluble
12,MKKLMITQEAGVATVLIKNPPVNILTIDLINELNAFILSLKDDRETKVVVFKSFHEAFFIAHLDLNVINGTSGGQAASIEFNHMIANIKAMKQLSIAVVDGVARGGGNEFVMACDLAYGTENSAFAQPELYINIPTGGQGAVQFARRLGKGKALQALLTGADFTAQQAETLNIITQFVLKAELDVFLAQLLSVIVGWEIRDIVMYKEIIAASIKDEAVGTELELRYFLERAREEKTQTIIAAFLKHGGQTEREAKDMQGIFVDTAAELSK,not soluble
13,MKKLTFEQLRSVQMSILDRVHLFCERHDLEYSLAGGTLLGAIRHKGYIPWDDDIDIMMPREDYEYLLQNFAKEYPDFTFFNLDTKHNPYPFLFSKLSLNDSVISNGRIKGVGINIDIFPIDSLGKEKGAAKLRFSLMKAINFFARIQRSRHDRANPIVNIAFRLFQKCLKLLPKKWFLSAIKGLCSTCSVNDDGYAVSIGSSYLAKEFTESSLYHDYTSCPFEDRQYKCIARYDDYLSMIYGDYMQLPKEQDRENHDNVGFIKEHLLPMLEHHHHHH,not soluble
14,MKKLTIGLIGNPNSGKTTLFNQLTGSRQRVGNWAGVTVERKEGQFSTTDHQVTLVDLPGTYSLTTISSQTSLDEQIACHYILSGDADLLINVVDASNLERNLYLTLQLLELGIPCIVALNMLDIAEKQNIRIEIDALSARLGCPVIPLVSTRGRGIEALKLAIDRYKANENVELVHYAQPLLNEADSLAKVMPSDIPLKQRRWLGLQMLEGDIYSRAYAGEASQHLDAALARLRNEMDDPALHIADARYQCIAAICDVVSNTLTAEPSRFTTAV,soluble
15,MKKRGLENHPQNRKKIFERFPRLTKLSEKNLFQICKTTLLNERKMKSIQNTIDELRKLSAGKSSEEVQRLKEMQKHSKMFGEIFGVYGATVGKPKPKEKEVKVPTKEMTFEEKRKLLETTFPNKVTPGQRAKARETLNFIANNPEIYAIASPQDPSSKAKTDPVSRPQLNIISSFSWPITSGSDWSPHGSEFNDLTAPRVGKLTPVPQWSDMKKSSLKLGTEDNFSKMSYDPAYSNTTQSQSVTTLYNETSTPYYDDSDLGTPLHTCVQ,not soluble
16,MKKRLSILIAGLASLSVNAATEPWASPEAEVLSRAQIQQVQGKQTYTYVRCWYRPAATHDDPYTTWEWAKNADGSYYTIQGYWWSSIRQKNMFYTTVQPETLLERCEETLGVNHDFADITYFAADHRFSYNHTIWSNDPEVQSNRISKVIAFGDSLSDTGNIFNASQWRFPNPDSWFLGHFSNGFVWTEYLAQGLNVPLYNWAVGGAAGRNQYVALTGVYEQVSSYLSYMRLAKNYQPENSLFTLEFGLNDFMNYNRSLADVKADYSSALIRLIDAGAKNLVLMTLPDATRAPQFQYATQEQIDTVRSKIIGMNAFIREQARYYQMQGIRIVLFDAYTLFDSITTQPEQHGFANANSPCLDIRRNSAADYLLSHSLSAECAKQGSDRFVFWEVTHPTTAIHHYLAEQILATEMAQFPL,not soluble
17,MKKRYSWEELARAMGIEPQRLENKEARELKKFVDEMTWPTHCNYCQGLDLTNPNPVHHPSYELTPACNHDCIFCYSNVAVKLGKAPKPGYYGWDNPKVITISQYGEPLLSPRIVEVNKMLRKRFPEARLDLQTNGSLLTRELWEKLDFDLVMISLNAADREKHRRIANADTFEQVVNALKIVGEDKSVRSVVRTVFMPGINDEDIPKIAELAASLGIDEMHLQPLTIHELNVERLKKAGLDFERAESIRELLKAAMEAKKYIDVRISGCILVQLKQMDPITLYSVRRVAREVVPLVKRSKLDILEHHHHHH,not soluble
18,MKKSYLVTPLVAGALILPAALPATAAQASAPAPAAVSTVNKTALTTDQIKAERSALNSRINMLQETQKAIPGSQYADQIEDLIKTALDLSGAIDTIAHGGVPAYDPATIVPRIHLAIDAADAIKTGNTTLQHKVKKAHVELGLEIAKASIVAINPASSVAQVQDEIKALKARIDKVSAYPDLSKDDTATIAYKQTLRKTIHEVRVGRNKNIVGKKDQAVVDTLNKEISKADKVRANAKSTVAQVDTAVDQLRAAYQTALNAPDKAKKLEHHHHHH,not soluble
19,MKKTIYKCVLPLLICILLTGCWDRTEINDIAFVVSSAIDKKKDQYRVAMQIPLVGQLGGQTGGGGGTAGSKTWYVDSASGTTIREANNKLQTSLSRTINTSHRRTVIIGEDMARDGVAPVFDILTRNPQNRLTALILVSRGEARDILNTDVQLEQFPAEMIRELAIIATSRPVFLSRFMSDLVEIGSDPYAPVISASKTKPGGKGKSNLKIDGLAIFKKDRLMDIFKDEHMTAALMLLNQARQPEFIVDLPNQMGQASIQLQKSNASFHAAEKNGKLSMTIEIRAKGIIMENQSTYETRENDQYYIIQKALNRTIKKDVISTVHRLQKLKADPAGFQDRTIRSTATTKNLLKKEWEEVYKDMEVHVVPIVTIEQGGVLYKTISH,not soluble
20,MKKTLILGATPETNRYAYLAAERLKSHGHEFIPVGRKKGEVLGKTIINERPVIEGVDTVTLYINPQNQLSEYNYILSLKPKRVIFNPGTENEELEEILSENGIEPVIGCTLVMLSAGT,not soluble
21,MKKTLYIFQNGELRRKDHSLYFETEERKRYIPVENTNDIYIFGEVDVSKRFLEFAAQKEIIVHYFNHYGYYVGSFYPREHLNSGHVVLKQAEHYIDPAKRLELACLFVQGSIRQMERVLKYYRSRLSDPEELEKALQLIEREEGKLSQANTVEQLMAVEGHIREAYYASFDAILRHPDFVFEKRTKRPPHNRLNALISFGNSIVYTMCLSEIYKTYLDPRIGFLHSTNFRRFSLNLDIAEIFKPIIVDRLIFTLVNKRMLSSKHFEKLTNGIVLNEEGRKLFVSELEKKMQTTVQHRHLGKSVSYRRLIRLELYKVQKHILGEKMYEPYAARW,not soluble
